Measured values taken from patent publication US20260275319A1, “ARCHAEAL PEPTIDE RECOMBINASE – A NOVEL PEPTIDE LIGATING ENZYME” (MAX-PLANCK-GESELLSCHAFT ZUR FÖRDERUNG DER WISSENSCHAFTEN …, priority 2019, published 2026).

Test system: (15)KDPGA(10F) and PGA(10) peptides
Assay: M. jannaschii Adriase peptide ligation rates with fluorescent peptides (SDS-PAGE/UV)
Format: biochemical
Experimental: To test this assumption, the Adriase reaction was performed with (X1)KDPGA(X2) peptides bearing a C-terminal fluorophore (SEQ ID NOs: 370-371 and 418; see also Table 6) and unmodified PGA(X3) synthetic peptides (SEQ ID NOs: 373-375; see Table 7) as model substrates. The recombination reaction is expected to result in the formation of a (X1)KDPGA(X3) fusion peptide, releasing the respective C-terminal peptides PGA(X2)(SEQ ID NOs: 414) with the C-terminal fluorescent label. The latter can be visualized in order to track the progress of the reaction.
For this purpose, ligations were performed and visualized as described above, except for the use of just 6 nM Adriase and the increasing concentrations of (15)KDPGA(10F) (SEQ ID NO: 418) and PGA(10)(SEQ ID NO: 374) peptides (2.5/5/10/20/40/80/160 µM of each peptide of the peptide pairs). The band intensity of the respectively fluorescently labeled PGA(10F)-peptide (see SEQ ID NO: 414), which is released by the ligation reaction was quantified using ImageJ v1.50i and subtracted from background signal in control reactions without PGA(10) peptide.
To determine how the reaction is influenced by recognition motif characteristics, ligation rates for other substrates were determined in the same manner, except for the use of 20 μM of the indicated substrates (see also Tables 6 and 7) and varying concentrations of Adriase (6/30/150/750 nM). […] In combination with the above experiments (FIGS. 9A and B), they provide the means to design substrates for efficient Adriase-mediated ligations.

B1: M. jannaschii Adriase: Methanocaldococcus jannaschii Adriase (MJ_0548) with C-terminal His6-tag (protein)
chain: SLIICYYGKNGAVIGGDRRQIFFRGSEENRKILEEKLYSGEIKSEEELYKLAEKLNIKIIIEDDREKVRKISDSVVCGEVRSLGIDAKRRRVYATKGKCAIVDILNDTVTNQTIKEGFGIVVLGNRFLKKKAEEELKRTAKLFPMMPIQQIEDAIKEIFEKLKWHPTVSKEYDIYSVNKYEKNFEEVIKKDIESLFKYREQLRKQLIDFGKVMSIVNKIVKNGEIGVIKDGKLHLYDDYIAIDKIDPNPKVFKVVDVEGNFKDGDIVVIENGDMKIKGTNEKVTTKYIIIHKGSHHHHHH
modifications: C-terminal His6-tag; M. jannaschii Adriase with C-terminal His-tag
maximum rate (6 nM Adriase, 85° C., equimolar substrates 2.5-160 μM, Michaelis-Menten model, single experiment): ~ 1.4 ligations per enzyme and second | ligation of (X1)KDPGA(X2) and PGA(X3) peptides (20 μM substrates, 6/30/150/750 nM Adriase, X1≥5 and X2=X3≥10): efficiently ligates | substrate concentration at half maximal reaction speed (each substrate, 6 nM Adriase, 85° C., Michaelis-Menten model): 23 µM
